{
  "source": "patent US20060067886A1",
  "about": "“Gastrin receptor-avid peptide conjugates” (priority 1997, published 2006)",
  "key": {"[1]": {"test": "in vivo", "conditions": "SCID, mouse, in vivo, iv, 4 uCi, total radioactivity; for tissue uptake at […]: 15 min; for tissue uptake at 0.5 h: 30 min"}, "[2]": {"test": "in vivo", "conditions": "SCID, mouse, iv, 4 uCi, total radioactivity", "method": "In vivo pharmacokinetic studies in human tumor bearing SCID mice. […] The xenograft models were produced by bilateral flank inoculation of 5×10^6 cells (PC-3 or MDA-MB-231 cells) per site. Four to six weeks post inoculation, palpable tumors were observed. At this point, the mice were injected with 4 μCi of the complex in 100/μL of isotonic saline via the tail vein. The mice were euthanized and tissues and organs were excised from the animals at selected times post-injection (p.i.), including 15 minutes, 30 minutes, 1 hour, 4 hours, 24 hours, 48 hours, and 72 hours p.i. Subsequently, the tissues and organs were weighed and counted in a NaI well counter and the percent injected dose (% ID) and % ID/g of each organ or tissue calculated."}},
  "data": [
    {"smiles": "CSCC[C@H](NC(=O)[C@H](CC(C)C)NC(=O)[C@H](Cc1cnc[nH]1)NC(=O)CNC(=O)[C@@H](NC(=O)[C@H](C)NC(=O)[C@H](Cc1c[nH]c2ccccc12)NC(=O)[C@H](CCC(N)=O)NC(=O)CCCCCCCNC(=O)CN1CCN(CC(=O)O)CCN(CC(=O)O)CCN(CC(=O)O)CC1)C(C)C)C(N)=O", "note": "[111In-DOTA-8-Aoc-BBN[7-14]NH2, metal not drawn]", "values": [
      {"measurement": "tissue uptake at 48 h", "setting": "[1]; Avg % ID/gm, Kidney", "result": "0.48 ± 0.09", "unit": "%ID/g"},
      {"measurement": "tissue uptake at […]", "setting": "[1]; Avg % ID/gm, L. Intestine", "result": "8.58 ± 3.04", "unit": "%ID/g"},
      {"measurement": "tissue uptake at 0.5 h", "setting": "[1]; Avg % ID/gm, L. Intestine", "result": "4.33 ± 0.44", "unit": "%ID/g"},
      {"measurement": "tissue uptake at 1 h", "setting": "[1]; Avg % ID/gm, L. Intestine", "result": "4.29 ± 2.55", "unit": "%ID/g"},
      {"measurement": "tissue uptake at 4 h", "setting": "[1]; Avg % ID/gm, L. Intestine", "result": "10.3 ± 2.7", "unit": "%ID/g"},
      {"measurement": "tissue uptake at 24 h", "setting": "[1]; Avg % ID/gm, L. Intestine, 24 hrs", "result": "2.35 ± 0.43", "unit": "%ID/g"},
      {"measurement": "tissue uptake at 48 h", "setting": "[1]; Avg % ID/gm, L. Intestine", "result": "0.81 ± 0.2", "unit": "%ID/g"},
      {"measurement": "tissue uptake at 72 h", "setting": "[1]; Avg % ID/gm, L. Intestine", "result": "0.45 ± 0.04", "unit": "%ID/g"},
      {"measurement": "tissue uptake at […]", "setting": "[1]; Avg % ID/gm, Liver", "result": "2.03 ± 0.85", "unit": "%ID/g"},
      {"measurement": "tissue uptake at 0.5 h", "setting": "[1]; Avg % ID/gm, Liver", "result": "0.7 ± 0.21", "unit": "%ID/g"},
      {"measurement": "tissue uptake at 72 h", "setting": "[1]; Avg % ID/gm, Liver", "result": "0.07 ± 0.02", "unit": "%ID/g"},
      {"measurement": "tissue uptake at 0.5 h", "setting": "[1]; Avg % ID/gm, Lung", "result": "0.94 ± 0.28", "unit": "%ID/g"},
      {"measurement": "tissue uptake at 48 h", "setting": "[1]; Avg % ID/gm, Lung", "result": "0.06 ± 0.02", "unit": "%ID/g"},
      {"measurement": "tissue uptake at 72 h", "setting": "[1]; Avg % ID/gm, Lung", "result": "0.02 ± 0.02", "unit": "%ID/g"},
      {"measurement": "tissue uptake at […]", "setting": "[1]; Avg % ID/gm, Muscle", "result": "1.3 ± 0.6", "unit": "%ID/g"},
      {"measurement": "tissue uptake at 0.5 h", "setting": "[1]; Avg % ID/gm, Muscle", "result": "0.32 ± 0.12", "unit": "%ID/g"},
      {"measurement": "tissue uptake at 1 h", "setting": "[1]; Avg % ID/gm, Muscle", "result": "0.08 ± 0.07", "unit": "%ID/g"},
      {"measurement": "tissue uptake at […]", "setting": "[1]; Avg % ID/gm, Pancreas", "result": "54.3 ± 9.7", "unit": "%ID/g"},
      {"measurement": "tissue uptake at 0.5 h", "setting": "[1]; Avg % ID/gm, Pancreas", "result": "27.9 ± 3.44", "unit": "%ID/g"},
      {"measurement": "tissue uptake at 4 h", "setting": "[1]; Avg % ID/gm, Pancreas", "result": "16.6 ± 4.43", "unit": "%ID/g"},
      {"measurement": "tissue uptake at 48 h", "setting": "[1]; Avg % ID/gm, Pancreas", "result": "0.77 ± 0.44", "unit": "%ID/g"},
      {"measurement": "tissue uptake at 72 h", "setting": "[1]; Avg % ID/gm, Pancreas", "result": "0.23 ± 0.08", "unit": "%ID/g"},
      {"measurement": "tissue uptake at 0.5 h", "setting": "[1]; Avg % ID/gm, S. Intestine", "result": "5.16 ± 1.06", "unit": "%ID/g"},
      {"measurement": "tissue uptake at 1 h", "setting": "[1]; Avg % ID/gm, S. Intestine", "result": "6.8 ± 1.81", "unit": "%ID/g"},
      {"measurement": "tissue uptake at 4 h", "setting": "[1]; Avg % ID/gm, S. Intestine", "result": "2.24 ± 0.35", "unit": "%ID/g"},
      {"measurement": "tissue uptake at 48 h", "setting": "[1]; Avg % ID/gm, S. Intestine", "result": "0.25 ± 0.06", "unit": "%ID/g"},
      {"measurement": "tissue uptake at 72 h", "setting": "[1]; Avg % ID/gm, S. Intestine", "result": "0.12 ± 0.02", "unit": "%ID/g"},
      {"measurement": "tissue uptake at […]", "setting": "[1]; Avg % ID/gm, Spleen", "result": "2.21 ± 0.8", "unit": "%ID/g"},
      {"measurement": "tissue uptake at 0.5 h", "setting": "[1]; Avg % ID/gm, Spleen", "result": "0.83 ± 0.26", "unit": "%ID/g"},
      {"measurement": "tissue uptake at […]", "setting": "[1]; Avg % ID/gm, Stomach", "result": "3.3 ± 1.99", "unit": "%ID/g"},
      {"measurement": "tissue uptake at 0.5 h", "setting": "[1]; Avg % ID/gm, Stomach", "result": "1.82 ± 0.44", "unit": "%ID/g"},
      {"measurement": "tissue uptake at 1 h", "setting": "[1]; Avg % ID/gm, Stomach", "result": "1.99 ± 0.24", "unit": "%ID/g"},
      {"measurement": "tissue uptake at 72 h", "setting": "[1]; Avg % ID/gm, Stomach", "result": "0.05 ± 0.02", "unit": "%ID/g"},
      {"measurement": "tissue uptake at 0.5 h", "setting": "[1]; Avg % ID/gm, Tumor", "result": "4.58 ± 0.53", "unit": "%ID/g"},
      {"measurement": "tissue uptake at 4 h", "setting": "[1]; Avg % ID/gm, Tumor", "result": "1.78 ± 1.09", "unit": "%ID/g"},
      {"measurement": "tissue uptake at 48 h", "setting": "[1]; Avg % ID/gm, Tumor", "result": "0.68 ± 0.24", "unit": "%ID/g"},
      {"measurement": "tissue uptake at 72 h", "setting": "[1]; Avg % ID/gm, Tumor", "result": "0.34 ± 0.1", "unit": "%ID/g"},
      {"measurement": "dose excreted at 24 h", "setting": "[1]; excretion through the hepatobiliary pathway, 24 hours p.i.", "result": 8.5, "unit": "%"},
      {"measurement": "tissue uptake at 1 h", "setting": "[2]; blood", "result": "0.35 ± 0.08", "unit": "%ID/g"},
      {"measurement": "tissue uptake at 4 h", "setting": "[2]; blood", "result": "0.08 ± 0.1", "unit": "%ID/g"},
      {"measurement": "tissue uptake at 24 h", "setting": "[2]; blood", "result": "0.02 ± 0.03", "unit": "%ID/g"},
      {"measurement": "tissue uptake at 1 h", "setting": "[2]; heart", "result": "0.15 ± 0.11", "unit": "%ID/g"},
      {"measurement": "tissue uptake at 24 h", "setting": "[2]; heart", "result": "0.08 ± 0.06", "unit": "%ID/g"},
      {"measurement": "tissue uptake at 1 h", "setting": "[2]; kidney", "result": "3.29 ± 0.56", "unit": "%ID/g"},
      {"measurement": "tissue uptake at 4 h", "setting": "[2]; kidney", "result": "1.76 ± 0.15", "unit": "%ID/g"},
      {"measurement": "tissue uptake at 24 h", "setting": "[2]; kidney", "result": "0.98 ± 0.28", "unit": "%ID/g"},
      {"measurement": "tissue uptake at 1 h", "setting": "[2]; large intestine", "result": "5.14 ± 0.42", "unit": "%ID/g"},
      {"measurement": "tissue uptake at 4 h", "setting": "[2]; large intestine", "result": "5.58 ± 1.26", "unit": "%ID/g"},
      {"measurement": "tissue uptake at 24 h", "setting": "[2]; large intestine", "result": "2.76 ± 0.49", "unit": "%ID/g"},
      {"measurement": "tissue uptake at 1 h", "setting": "[2]; liver", "result": "0.31 ± 0.04", "unit": "%ID/g"},
      {"measurement": "tissue uptake at 4 h", "setting": "[2]; liver", "result": "0.15 ± 0.09", "unit": "%ID/g"},
      {"measurement": "tissue uptake at 24 h", "setting": "[2]; liver", "result": "0.07 ± 0.02", "unit": "%ID/g"},
      {"measurement": "tissue uptake at 1 h", "setting": "[2]; lung", "result": "0.31 ± 0.09", "unit": "%ID/g"},
      {"measurement": "tissue uptake at 4 h", "setting": "[2]; lung", "result": "0.06 ± 0.06", "unit": "%ID/g"},
      {"measurement": "tissue uptake at 24 h", "setting": "[2]; lung", "result": "0.05 ± 0.05", "unit": "%ID/g"},
      {"measurement": "tissue uptake at 1 h", "setting": "[2]; muscle", "result": "0.08 ± 0.05", "unit": "%ID/g"},
      {"measurement": "tissue uptake at 4 h", "setting": "[2]; muscle", "result": "0.06 ± 0.13", "unit": "%ID/g"},
      {"measurement": "tissue uptake at 1 h", "setting": "[2]; pancreas", "result": "23.4 ± 4.99", "unit": "%ID/g"},
      {"measurement": "tissue uptake at 4 h", "setting": "[2]; pancreas", "result": "17.9 ± 5", "unit": "%ID/g"},
      {"measurement": "tissue uptake at 24 h", "setting": "[2]; pancreas", "result": "5.06 ± 0.77", "unit": "%ID/g"},
      {"measurement": "tissue uptake at 1 h", "setting": "[2]; small intestine", "result": "5.15 ± 0.19", "unit": "%ID/g"},
      {"measurement": "tissue uptake at 24 h", "setting": "[2]; small intestine", "result": "0.9 ± 0.14", "unit": "%ID/g"},
      {"measurement": "tissue uptake at 1 h", "setting": "[2]; spleen", "result": "0.57 ± 0.1", "unit": "%ID/g"},
      {"measurement": "tissue uptake at 4 h", "setting": "[2]; spleen", "result": "0.48 ± 0.25", "unit": "%ID/g"},
      {"measurement": "tissue uptake at 24 h", "setting": "[2]; spleen", "result": "0.21 ± 0.07", "unit": "%ID/g"},
      {"measurement": "tissue uptake at 4 h", "setting": "[2]; stomach", "result": "0.27 ± 0.08", "unit": "%ID/g"},
      {"measurement": "tissue uptake at 24 h", "setting": "[2]; stomach", "result": "0.33 ± 0.1", "unit": "%ID/g"},
      {"measurement": "tissue uptake at 1 h", "setting": "[2]; tumor (Tumor 1)", "result": "0.91 ± 0.16", "unit": "%ID/g"},
      {"measurement": "tissue uptake at 4 h", "setting": "[2]; tumor (Tumor 1)", "result": "0.36 ± 0.13", "unit": "%ID/g"},
      {"measurement": "tissue uptake at 24 h", "setting": "[2]; tumor (Tumor 1)", "result": "0.22 ± 0.07", "unit": "%ID/g"},
      {"measurement": "tissue uptake at 1 h", "setting": "[2]; tumor (Tumor 2)", "result": "0.74 ± 0.27", "unit": "%ID/g"},
      {"measurement": "tissue uptake at 4 h", "setting": "[2]; tumor (Tumor 2)", "result": "0.4 ± 0.23", "unit": "%ID/g"},
      {"measurement": "tissue uptake at 24 h", "setting": "[2]; tumor (Tumor 2)", "result": "0.24 ± 0.15", "unit": "%ID/g"},
      {"measurement": "tissue uptake at 1 h", "setting": "[2]; tumor", "result": "0.83 ± 0.23", "unit": "%ID/g"},
      {"measurement": "dose excreted at 1 h", "setting": "[2]; urine", "result": "72.1 ± 3.55", "unit": "%"},
      {"measurement": "dose excreted at 4 h", "setting": "[2]; urine", "result": "84.3 ± 2.09", "unit": "%"},
      {"measurement": "dose excreted at 24 h", "setting": "[2]; urine", "result": "83.8 ± 1.41", "unit": "%"}
    ]}
  ]
}
